Experimental data from the supplement of paper PMC10065799, “High-throughput profiling of sequence recognition by tyrosine kinases and SH2 domains using bacterial peptide display” (eLife, 2023).
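Further: 11-residue human phosphosite peptides and single-mutation variants displayed on the E. coli surface, counted by deep sequencing, each peptide's frequency after selection divided by its frequency in the unselected input library; frequency after pTyr selection over input frequency; kinase dosed for 20-30% of maximal phosphorylation in three min.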

These sequences were tested against Hck (UniProt P08631) (assay: phosphorylation enrichment, bacterial display (enrichment ratio); higher = better substrate or ligand; peptides without Tyr show the background).
Sequence of Hck (P08631 whole entry, looked up): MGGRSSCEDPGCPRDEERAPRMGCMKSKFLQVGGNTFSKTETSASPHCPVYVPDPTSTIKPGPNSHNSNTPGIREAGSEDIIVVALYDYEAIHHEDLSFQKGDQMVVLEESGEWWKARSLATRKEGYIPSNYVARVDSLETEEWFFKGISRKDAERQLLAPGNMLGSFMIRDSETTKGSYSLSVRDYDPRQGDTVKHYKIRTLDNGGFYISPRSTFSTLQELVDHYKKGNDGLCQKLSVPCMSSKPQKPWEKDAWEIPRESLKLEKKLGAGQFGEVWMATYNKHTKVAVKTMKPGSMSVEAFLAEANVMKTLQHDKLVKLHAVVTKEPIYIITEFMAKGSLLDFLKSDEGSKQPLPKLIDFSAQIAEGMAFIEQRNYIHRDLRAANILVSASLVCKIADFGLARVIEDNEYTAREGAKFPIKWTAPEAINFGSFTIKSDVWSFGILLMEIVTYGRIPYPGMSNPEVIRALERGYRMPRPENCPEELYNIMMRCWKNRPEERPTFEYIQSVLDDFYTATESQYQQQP
For DLQDEYDFKCK [STAT1_Y170], the phosphorylation enrichment was 0.766. RLLVVYRWTQR [HBB_Y36_P37R] showed a phosphorylation enrichment of 0.567. Sequence LPKEQYLFTKE [AFG3L2_Y614_YF] has a phosphorylation enrichment of 0.996. For QISSNYDDAMQ [ZNF281_Y531], the phosphorylation enrichment was 0.499. With CSGNCYLDIRP [FBN1_Y1535_R1530C] the phosphorylation enrichment was 0.504. For GSERDYTYEEL [EIF2S2_Y174], the phosphorylation enrichment was 1.21. For LGRTRYQDVTG [MIPEP_Y510_H512D], the phosphorylation enrichment was 0.336. LLLLFYVVRFC [MPZ_Y177_YF] gave a phosphorylation enrichment of 0.472. For VYSIDYYRVGG [NTRK2_Y706_T704I], the phosphorylation enrichment was 3.95. For VQVAYYTMMMN [SPATA17_Y84], the phosphorylation enrichment was 1.65. CTTIHYNYICN [TP53_Y234_M237I] showed a phosphorylation enrichment of 0.521. In the case of TFSPPYYHRNC [HGD_Y333_R330S], the phosphorylation enrichment is reported as 0.531. Work on GPQGFYSNKLV [PTPN14_Y506_V505F] yielded a phosphorylation enrichment of 0.393. SRPHLYGTPSR [ADGRE2_Y670] was tested, and the phosphorylation enrichment was 0.565. Sequence GDEVEYMSVSF [GCLC_Y53_L55S] has a phosphorylation enrichment of 1.26. PYGQWYESHYA [RPS8_Y113_R110G] was tested, and the phosphorylation enrichment was 5.96. QEIATYRRLPE [KRT16_Y417_L421P] showed a phosphorylation enrichment of 0.553. In the case of SYSGEYGSGGG [ZG16_Y30_G32S], the phosphorylation enrichment is reported as 0.534. KAVLHYKHQNQ [MTOR_Y1804_E1799K] was tested, and the phosphorylation enrichment was 0.449. Work on QVKEQYQDVPM [PKP2_Y659_K654Q] yielded a phosphorylation enrichment of 0.701. With NTCNRYCCDEI [ITGB3_Y660_R662C] the phosphorylation enrichment was 0.574. Sequence FSQQTYYPVSN [ABCD1_Y180_R182P] has a phosphorylation enrichment of 5.05. In the case of HAVYIYDICHV [TWNK_Y508_V507I], the phosphorylation enrichment is reported as 5.31. SDGGCYEQLFV [MC4R_Y41] showed a phosphorylation enrichment of 2.14. Sequence DLTQDYEEWKR [ORC6_Y232] has a phosphorylation enrichment of 0.845. TEAEPYYRSLR [NPHS1_Y1138] gave a phosphorylation enrichment of 0.503. DNEFAYLKAII [HNF4A_Y288_YF] showed a phosphorylation enrichment of 0.407. Work on WYQTKYEELQV [KRT6B_Y360_I365V] yielded a phosphorylation enrichment of 0.723. AKKKMYSRKTK [AGXT_Y231] gave a phosphorylation enrichment of 0.496.

The sequences below were run against Jak2 (UniProt O60674) in the same assay as above.
Sequence of Jak2 (O60674 whole entry, looked up): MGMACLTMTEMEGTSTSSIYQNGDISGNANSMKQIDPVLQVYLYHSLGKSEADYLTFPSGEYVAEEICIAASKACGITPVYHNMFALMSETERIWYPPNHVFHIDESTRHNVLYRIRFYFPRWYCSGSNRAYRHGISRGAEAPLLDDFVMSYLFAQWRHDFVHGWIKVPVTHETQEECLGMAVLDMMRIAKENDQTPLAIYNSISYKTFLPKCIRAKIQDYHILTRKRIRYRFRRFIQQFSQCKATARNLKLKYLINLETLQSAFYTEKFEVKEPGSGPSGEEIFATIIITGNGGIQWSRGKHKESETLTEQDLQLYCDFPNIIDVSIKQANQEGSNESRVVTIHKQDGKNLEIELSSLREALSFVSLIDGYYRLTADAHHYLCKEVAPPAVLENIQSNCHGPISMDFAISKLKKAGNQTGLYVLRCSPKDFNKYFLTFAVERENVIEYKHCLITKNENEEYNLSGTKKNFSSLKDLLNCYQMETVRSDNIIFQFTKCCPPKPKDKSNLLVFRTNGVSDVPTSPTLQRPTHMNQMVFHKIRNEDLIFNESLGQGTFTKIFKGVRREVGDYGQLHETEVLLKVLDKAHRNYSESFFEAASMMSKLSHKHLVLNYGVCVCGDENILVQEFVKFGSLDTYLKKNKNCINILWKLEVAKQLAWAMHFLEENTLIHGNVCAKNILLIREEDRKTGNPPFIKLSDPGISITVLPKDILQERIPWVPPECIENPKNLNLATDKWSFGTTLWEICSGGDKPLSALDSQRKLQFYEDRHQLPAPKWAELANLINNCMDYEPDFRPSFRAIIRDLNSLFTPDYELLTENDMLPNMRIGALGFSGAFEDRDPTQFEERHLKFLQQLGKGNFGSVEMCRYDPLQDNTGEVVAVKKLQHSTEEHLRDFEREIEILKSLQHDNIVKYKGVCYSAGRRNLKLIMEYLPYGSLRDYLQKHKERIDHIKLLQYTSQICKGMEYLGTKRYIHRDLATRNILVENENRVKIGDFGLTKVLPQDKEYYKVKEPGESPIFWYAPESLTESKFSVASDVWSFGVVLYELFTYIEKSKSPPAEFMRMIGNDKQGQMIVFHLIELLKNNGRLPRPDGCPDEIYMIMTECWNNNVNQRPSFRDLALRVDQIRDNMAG
With DLQDEYDFKCK [STAT1_Y170] the phosphorylation enrichment was 1.19. RLLVVYRWTQR [HBB_Y36_P37R] showed a phosphorylation enrichment of 0.926. In the case of LPKEQYLFTKE [AFG3L2_Y614_YF], the phosphorylation enrichment is reported as 0.532. Work on QISSNYDDAMQ [ZNF281_Y531] yielded a phosphorylation enrichment of 0.939. CSGNCYLDIRP [FBN1_Y1535_R1530C] gave a phosphorylation enrichment of 0.514. With GSERDYTYEEL [EIF2S2_Y174] the phosphorylation enrichment was 1.29. LGRTRYQDVTG [MIPEP_Y510_H512D] showed a phosphorylation enrichment of 0.888. With LLLLFYVVRFC [MPZ_Y177_YF] the phosphorylation enrichment was 0.664. VYSIDYYRVGG [NTRK2_Y706_T704I] showed a phosphorylation enrichment of 7.33. VQVAYYTMMMN [SPATA17_Y84] showed a phosphorylation enrichment of 4.11. In the case of CTTIHYNYICN [TP53_Y234_M237I], the phosphorylation enrichment is reported as 0.682. For TFSPPYYHRNC [HGD_Y333_R330S], the phosphorylation enrichment was 0.83. GPQGFYSNKLV [PTPN14_Y506_V505F] was tested, and the phosphorylation enrichment was 0.445. SRPHLYGTPSR [ADGRE2_Y670] was tested, and the phosphorylation enrichment was 0.588. Work on GDEVEYMSVSF [GCLC_Y53_L55S] yielded a phosphorylation enrichment of 1.11. With PYGQWYESHYA [RPS8_Y113_R110G] the phosphorylation enrichment was 1.09. QEIATYRRLPE [KRT16_Y417_L421P] showed a phosphorylation enrichment of 0.73. Work on SYSGEYGSGGG [ZG16_Y30_G32S] yielded a phosphorylation enrichment of 0.727. KAVLHYKHQNQ [MTOR_Y1804_E1799K] gave a phosphorylation enrichment of 0.622. QVKEQYQDVPM [PKP2_Y659_K654Q] gave a phosphorylation enrichment of 1.12. Work on NTCNRYCCDEI [ITGB3_Y660_R662C] yielded a phosphorylation enrichment of 1.43. FSQQTYYPVSN [ABCD1_Y180_R182P] was tested, and the phosphorylation enrichment was 7.07. HAVYIYDICHV [TWNK_Y508_V507I] gave a phosphorylation enrichment of 0.989. SDGGCYEQLFV [MC4R_Y41] was tested, and the phosphorylation enrichment was 0.991. Work on DLTQDYEEWKR [ORC6_Y232] yielded a phosphorylation enrichment of 1.28. For TEAEPYYRSLR [NPHS1_Y1138], the phosphorylation enrichment was 0.809. DNEFAYLKAII [HNF4A_Y288_YF] showed a phosphorylation enrichment of 0.91. With WYQTKYEELQV [KRT6B_Y360_I365V] the phosphorylation enrichment was 1.02. AKKKMYSRKTK [AGXT_Y231] showed a phosphorylation enrichment of 0.455.
